Test results published in patent publication US20130108642A1 (LOS ANGELES BIOMEDICAL RESEARCH INSTITUTE AT HARBOR UCLA …, published 2013).

Tests used:
[1] = target: T1, endothelial cell surface GRP78 (human umbilical vein endothelial cells) (human, UniProt P11021 19-654); test: pull-down of biotin-labeled endothelial cell surface proteins by yeast cells, immunoblot with anti-GRP78 Ab
T1 construct: whole, on cells; In the adherence and endocytosis assays it is on intact endothelial cells; also called endothelial cell GRP78; Glucose Regulated Protein 78
T1 sequence (P11021 19-654): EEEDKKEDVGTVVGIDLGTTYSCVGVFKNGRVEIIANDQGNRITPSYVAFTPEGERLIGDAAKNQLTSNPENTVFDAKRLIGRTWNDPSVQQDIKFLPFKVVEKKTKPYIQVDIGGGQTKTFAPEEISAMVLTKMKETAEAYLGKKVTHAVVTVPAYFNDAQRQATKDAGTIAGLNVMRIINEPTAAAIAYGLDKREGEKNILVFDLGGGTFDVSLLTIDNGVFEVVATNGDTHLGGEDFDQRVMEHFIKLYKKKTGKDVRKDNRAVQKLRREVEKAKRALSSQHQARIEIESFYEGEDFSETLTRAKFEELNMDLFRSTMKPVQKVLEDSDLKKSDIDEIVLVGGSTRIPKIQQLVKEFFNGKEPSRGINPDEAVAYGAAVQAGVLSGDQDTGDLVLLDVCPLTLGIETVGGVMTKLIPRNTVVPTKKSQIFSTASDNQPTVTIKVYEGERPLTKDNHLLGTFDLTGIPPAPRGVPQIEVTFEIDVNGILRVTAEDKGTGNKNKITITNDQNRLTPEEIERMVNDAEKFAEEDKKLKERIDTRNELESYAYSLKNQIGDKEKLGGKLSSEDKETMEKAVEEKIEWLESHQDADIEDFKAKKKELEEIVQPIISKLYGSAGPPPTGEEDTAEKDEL

[2] = target: T2, recombinant human Grp78 (human, UniProt P11021 19-654); test: FAR Western blot with recombinant human Grp78 and anti-Grp78 Ab; bands identified by MALDI-TOF-MS/MS
T2 construct: Soluble probe in the FAR Western blot, detected with anti-Grp78 Ab; also called rGrp78; Grp78p
T2 sequence (P11021 19-654 limits assumed): as the sequence (P11021 19-654) above

| Binder | binding result [1] | binding result [2] |
| --- | --- | --- |
| CotH1 (RO3G-05018) from R. oryzae, on the cell surface of S. cerevisiae (other, also called S. cerevisiae expressing CotH1) AKVSFKVIAPDAKNRVHVNINGVLVELKASDPDVPYYTGFAELKHGQSYNYVVDGNAEPFKRLLNGSSTKNEFFNRPVTYATNIPELPSILTEGSWTRGDTSNPIWDSNYVPSIFVTGNPREMNELIENVKKNTYKTKITFIGPETINTFEGCTLGLHKPGRKHNDAKQSWIWALPEGQFMANRNWFKIRHMEEDPTQLREKLYADILRKMGTYANEANMVRFFINKEGMGIFNMLDDVIMYSYINAMFYHGDTPEQLGGLYDGASGASFNFPGDFDSFIPNVESPLDQDAIEPFSKAFTSIDFLEDEQVKTIGKYFDYDQFLRFMVMEFLTGDWDGYWQEQTNDGAYIDINDHNKIYYLGQDFDATFGVNLEQKREFVNVSYTEYPKLFPGGVLINRLLQNPGVKKTFENYLKITVQEIFNNATLGPYVTARHEFLAPDLQWDRSIKQRSPGNIFGWTFEQTYENLFEGVTAPGKNSGGADWGLLEWVAAKEKAVKSYLSSSEAADAATVTQVPEAPGTDGTPSESTAWPHANTRFRQAEASNTHKIGTSSPSNFIVKIKQGTVSS | no binding |  |
| CotH3 (RO3G-11882), native protein in cell wall material from supernatants of R. oryzae germling protoplasts (other, Protein on the FAR Western blot, identified by MALDI-TOF-MS/MS of excised bands; also called R. oryzae ligand; R. oryzae surface protein) ASIKFNVIAPNATDVKVSVNGQQVTLTASDANVPYFTGSAEVGASKTYKYVAGGTEESFDRSLDGITNSTLNDFYNRPVTYANLPQLPWPIEKDPQWTRSGSKADIFDDNYIPSVFFHGDDSQVQNVVKNVPADRISGTLTFIGSNYVYSFQNVSFGIHGAGKKHNNAKQSWNWILSGSDTMGNRNFFKLRHMEEDPTQIRERLYSDILHAMGTYANDATMVRLFINNQGFGTFNMLDDITQFSYINAKFYNGKPPATLGPLYDGASGADFLYHPGNLDGYSSWVANTANPNGEAYEALDPLCKAWNETTYTDNTAIANFEKMFDLDRFMRFMVIEYLTADWDGYWMGQTNDGAYRDPTDNNKWYFLDQDFDGTFGVNLAAPEGNAFLDVSYKDFPSRYPGAVMINNLLQNADKKATFEKYLTETVRVLFNNVTLTNRVLALHNFLLPDLEWDRSIVQQSPGINFGWTFDQVTQNLWQGVTAPNNNGGGAAFGLVEYIAAKAQAVAKEFNISIVSQPVGPPSANGTTAAAPAPAAGNSTGKGGNQSISSSASSNKTSAQSTS |  | binds |
| CotH2 (RO3G-08029), native protein in cell wall material from supernatants of R. oryzae germling protoplasts (other, Protein on the FAR Western blot, identified by MALDI-TOF-MS/MS of excised bands; also called R. oryzae ligand; R. oryzae surface protein) ASVQFNLIAPSATDVKVSVNGQQVALTASDPNVPYFTGSAEVGGTEESFERSLAGITNSTFNDFYNRPVTYANLPQLPWPIENDPQWTRKGKKAEIFDDNYIPSVFFHGDDSQVQDLVKNVPKDKVTGTLTFIGSNYVHSFANVSFGIHGAGKKHNNAKQSWKWTLSGTDTMGNRNHFKLRHMEEDPTQIRERLYADILHAMGTYANETTMVRLFINGQGFGTFNMLDDITEFSYINAMFYGGNPPATLGPLFDGASGADFIYHPGNLDGYSSWKPNKDNANGEGYEAFDPLCKAWNETDYTDNTAIANFEKMFDTEHFLRFMVIEYLTAHWDGYWMGQTNDGAYRDPSDNNKWYFLDQDFDATFGVNLDVPENKDFISVSYKDFPSRYPAGVMANGLLQNADKKAKFEQYLTETVRVLFNNVTLTNRVLAIHNFLSPDLEWDRSIVQQSPGTNFGWTFEQTSQNLWQGVSAPNNNGGGAEWGLVEYIAAKSQAMAKEFNITIVSEPVGPPAANGTATSTNDGGNTHTAAGESKPASSSESSGSKIASQSVS |  | binds |
